These results are taken from patent US20220041726A1 (Dana-Farber, published 2022).

The experiment concerns the target T1, mouse PD-1 (mouse, UniProt Q02242 25-288).
T1 construct: also called 300-mouse PD-1 transfectants; 300-PD-1 transfectants
T1 sequence: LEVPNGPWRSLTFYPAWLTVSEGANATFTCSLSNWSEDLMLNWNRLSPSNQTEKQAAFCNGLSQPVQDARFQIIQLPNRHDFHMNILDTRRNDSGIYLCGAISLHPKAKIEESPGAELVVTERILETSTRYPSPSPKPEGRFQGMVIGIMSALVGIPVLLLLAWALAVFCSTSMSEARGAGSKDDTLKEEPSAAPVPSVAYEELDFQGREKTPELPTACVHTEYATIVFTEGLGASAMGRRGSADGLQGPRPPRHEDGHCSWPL
Kind of experiment: hybridoma screened by flow cytometry on PD-1 transfectants; described in words only.

Excerpt: The mice were immunized first with human PD-1-mIgG2a fusion protein (made in Freeman lab) in complete Freund's adjuvant and thereafter with alternating doses of human PD-1-mIgG2a fusion protein and mouse PD-1-Ig fusion protein in incomplete Freund's adjuvant. Mice were given a final boost with antigen and fused with SP2/0 myeloma cells. The PD-1 specific hybridomas were first identified when this fusion was screened by flow cytometry on 300-human PD-1 and 300-mouse PD-1 transfectants. Hybridomas were subcloned to stability. The mAbs were characterized for their capacity to bind to human and/or mouse PD-1 and for their affinity.

B1: 8H3 mouse anti-mouse PD-1 mAb (antibody, mouse IgG1, V domains shown)
VH: QVQLQQSGAELARPGASVKMSCKASGYTFTSYTMHWVKQRPGQGLEWIGYIHPSTGYIYYNQKFKDKATLTADKSSSTAYMQLSSLTSEDSAVYYCARKGTYLFDYWGQGTTLTVSS
VL: DIVMTQSQKFMSTSVGDRVSVTCKASQNVGTNVAWYQQKPGQSPKALIYSASYRYSGVPDRFTGSGSGTDFTLTISNMQSEDLAEYFCQQYNNYPLTFGAGTMLELK
notes: the light chain is kappa; also called 332.8H3; αPD-1 mAb (8H3)
As for B1, the binding result is on record as “binds”.
